Values of other authors as cited in article PMC11533685.

Columns and labels:
[1] = target: CD58 ECD (Homo sapiens) (UniProt P19256); assay: SPR
[2] = target: CD200R ECD (UniProt Q8TD46); assay: SPR
UniProt Q8TD46, sequence (Q8TD46 25-265): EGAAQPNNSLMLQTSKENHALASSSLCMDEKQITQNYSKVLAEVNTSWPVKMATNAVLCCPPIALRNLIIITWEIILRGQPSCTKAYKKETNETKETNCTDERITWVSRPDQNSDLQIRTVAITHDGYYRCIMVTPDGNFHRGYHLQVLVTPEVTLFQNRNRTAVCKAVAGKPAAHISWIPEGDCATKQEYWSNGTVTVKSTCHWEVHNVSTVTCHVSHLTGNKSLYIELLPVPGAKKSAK

UniProt P19256, sequence (P19256 29-215): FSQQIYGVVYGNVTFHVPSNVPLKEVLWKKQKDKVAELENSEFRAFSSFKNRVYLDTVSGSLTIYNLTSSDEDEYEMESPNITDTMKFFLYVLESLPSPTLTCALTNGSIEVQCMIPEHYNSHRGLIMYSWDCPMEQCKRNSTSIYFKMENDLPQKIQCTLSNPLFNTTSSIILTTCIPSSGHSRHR

| Kd [1] [µM] | Substance | Kd [2] [µM] |
| --- | --- | --- |
| 10 | CD2 ECD (from UniProt P06729) | – |
| – | CD200 ECD (from UniProt P41217) | 1 |
